These results are taken from publication PMC10384999.

The target of this series is T1, ArcR (Staphylococcus aureus NCTC8325 (?)) (UniProt Q2FUY1).
T1 sequence: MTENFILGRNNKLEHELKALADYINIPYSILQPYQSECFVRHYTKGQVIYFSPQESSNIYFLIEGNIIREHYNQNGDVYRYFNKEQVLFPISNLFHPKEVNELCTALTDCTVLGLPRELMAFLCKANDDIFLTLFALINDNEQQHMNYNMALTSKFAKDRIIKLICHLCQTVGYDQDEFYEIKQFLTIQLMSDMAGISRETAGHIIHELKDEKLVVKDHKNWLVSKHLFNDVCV
Nature of the series: EMSA. The conditions noted are these: 25 mM HEPES, 300 mM NaCl, 1 mM DTT, 10% glycerol, pH 7.8; 30 min at room temperature ([…]) or 37 °C ([…].
“ACCTACCTTTCGTTAGTTAGGTTGTAAGCCATATGGTAATTGATAGTATTTTAATTTGCAATAGATTGTTGTTATAATTAAACGGAAATATTTGTAATTGCAACTTAATTTTCCTGTAACATAGTGTGATTAATTTTCAGTAGGGGGTTATAAAAATTGAAGGATAAGATTATTGATAACGCAATAACCTTATTTTCAGAGAAGGGGTATGACGGTACAACACTTGATGATATAGCT (double strand) [ica promoter (icaA) fragment]”: the binding result is “binds”. For the sequence “AGCGCGTGTTGTTATGTCGCGAATGGTAATCTTTTCTAAATCTTTTTCTTGTAGTAATTTAGTGAACGCTTGTTTAATGGAGGACTTTGTCTTTCTAATTCGCCTATCTTCTTTCAAAAATAAATCAACCTCCTTGTGTTATTGAACAATGTGGGTGTATTTGTCTATTAATGAACGTATTGATGAACATTGTGTATTGTTTATTCCCACTTACATATTATAATAGACAACATGCGAAATATTCAACACATTGTCTAATAAGGAGGT (double strand) [tetA promoter fragment]”, the binding result is reported as “no binding”. “TCAACTTTGACTAACCCTCGAAATTGAAATGCTTCCTTTCAAATTTTAAATAAAAGTTAAAAACATATTCTTAAAATAATCACTCATCATCACTCAGTAATTTATCAGTTGCTACATTAAATATACTAATATAAACGATTATAAATATTTGATATGTCTCAACTGCAATATTCTAAATTGACATATTGATTATTGTTTCCTCAAATCGTTTTAAAAAATAGAAGGATGATGAAAATGAAAACACGTATAGTCAGCTCAGTAACAACAACACTATTGCTAGGTT (double strand) [hla promoter fragment]”: the binding result is on record as “binds”.
